Read-outs that look alike come from different tables or passages of the source.
Assays:
Assay in all cases: cell-based or functional assay
[1] = molecular target: HIV-1 strain CAP45.2.00.G3 envelope (gp120) (HIV-1)
[2] = molecular target: HIV-1 strain CAP210.2.00.E8 envelope (gp120) (HIV-1)
[3] = molecular target: HIV-1 strain Du172.17 envelope (gp120) (HIV-1)
[4] = molecular target: HIV-1 strain TRO.11 envelope (gp120) (HIV-1)
[5] = molecular target: HIV-1 strain AC10.0.29 envelope (gp120) (HIV-1)
[6] = molecular target: HIV-1 strain SC422661.8 envelope (gp120) (HIV-1)
[7] = molecular target: HIV-1 Env of strain CAP45.2.00.G3 (HIV-1)
[8] = molecular target: HIV-1 Env of strain TRO.11 (HIV-1)
[9] = molecular target: HIV-1 Env of strain QH0692.42 (HIV-1)
[10] = molecular target: HIV-1 Env of strain AC10.0.29 (HIV-1)
[11] = molecular target: HIV-1 Env of strain T257-31 (HIV-1)
[12] = molecular target: HIV-1 Env of strain ZM214M.PL15 (HIV-1)
[13] = molecular target: HIV-1 Env of strain SC422661.8 (HIV-1)
[14] = molecular target: HIV-1 strain CAP45.2.00.G3 envelope (gp120) (HIV-1); remark: listed apart in the source
[15] = molecular target: HIV-1 strain TRO.11 envelope (gp120) (HIV-1); remark: listed apart in the source
[16] = molecular target: HIV-1 strain AC10.0.29 envelope (gp120) (HIV-1); remark: listed apart in the source
[17] = molecular target: HIV-1 strain QH0692.42 envelope (gp120) (HIV-1)
[18] = molecular target: HIV-1 strain T257-31 envelope (gp120) (HIV-1)
[19] = molecular target: HIV-1 strain ZM214M.PL15 envelope (gp120) (HIV-1)
[20] = molecular target: HIV-1 strain SC422661.8 envelope (gp120) (HIV-1); remark: listed apart in the source

Binder | neutralization IC50 [1] [µg/mL] | neutralization IC50 [2] [µg/mL] | neutralization IC50 [3] [µg/mL] | neutralization IC50 [4] [µg/mL] | neutralization IC50 [5] [µg/mL] | neutralization IC50 [6] [µg/mL] | also measured
3BNC60 IgG (antibody, V domains shown) VH: QVHLSQSGAAVTKPGASVRVSCEASGYKISDHFIHWWRQAPGQGLQWVGWINPKTGQPNNPRQFQGRVSLTRQASWDFDTYSFYMDLKAVRSDDTAIYFCARQRSDFWDFDVWGSGTQVTVSS VL: DIQMTQSPSSLSARVGDTVTITCQANGYLNWYQQRRGKAPKLLIYDGSKLERGVPARFSGRRWGQEYNLTINNLQPEDVATYFCQVYEFIVPGTRLDLKRTVA | 10 | 4.7 | 0.05 | 0.07 | 13 | 0.1 | –
3BNC117 IgG (antibody, V domains shown) VH: QVQLLQSGAAVTKPGASVRVSCEASGYNIRDYFIHWWRQAPGQGLQWVGWINPKTGQPNNPRQFQGRVSLTRHASWDFDTFSFYMDLKALRSDDTAVYFCARQRSDYWDFDVWGSGTQVTVSS VL: DIQMTQSPSSLSASVGDTVTITCQANGYLNWYQQRRGKAPKLLIYDGSKLERGVPSRFSGRRWGQEYNLTINNLQPEDIATYFCQVYEFVVPGTRLDLKRTVA | 16 | 11 | 0.04 | 0.6 | 6.5 | 0.07 | –
12A12 IgG (antibody, V domains shown) VH: SQHLVQSGTQVKKPGASVRISCQASGYSFTDYVLHWWRQAPGQGLEWMGWIKPVYGARNYARRFQGRINFDRDIYREIAFMDLSGLRSDDTALYFCARDGSGDDTSWHLDPWGQGTLVIVSA VL: DIQMTQSPSSLSASVGDRVTITCQAGQGIGSSLQWYQQKPGKAPKLLVHGASNLHRGVPSRFSGSGFHTTFSLTISGLQRDDFATYFCAVLEFFGPGTKVEIKR | 0.4 | > 50 | 0.2 | 0.3 | 0.6 | 0.2 | –
3BNC55 IgG (antibody, V domains shown) VH: QVQLVQSGTAVKRPGASVRVSCQASGYTFTDYFIYWWRQAPGQGLEWLGWINPLTSQPSYPSRFQGRLTLTRDTFDEMLYMDLRGLRSDDTGIYFCARRHSDYCDFDIWGSGTQIIVSS VL: DIQMTQSPSSLSASVGDKVTITCQTSAGYLNWYQQRRGRAPKLLMYDGSRLVTGVPSRFSGRRWGTQYNLTIGSLQPEDIATYYCQVYEFFGPGTRLDLKS | > 50 | > 50 | 2 | 7.6 | > 50 | 0.3 | –
NIH45-46 Δ99a-99d IgG (antibody, V domains shown) VH: QVRLSQSGGQMKKPGESMRLSCRASGYEFLNCPINWIRLAPGRRPEWMGWLKPRGGAVNYARKFQGRVTMTRDVYSDTAFLELRSLTSDDTAVYFCTRGKYCTYNWDFEHWGRGAPVTVSS VL: EIVLTQSPATLSLSPGETAIISCRTSQSGSLAWYQQRPGQAPRLVIYSGSTRAAGIPDRFSGSRWGADYNLSISNLESGDFGVYYCQQYEFFGQGTKVQVDI | – | – | – | – | – | – | neutralization IC50 [7]: > 50 µg/mL; neutralization IC50 [8]: > 50 µg/mL; neutralization IC50 [9]: 3.7 µg/mL; neutralization IC50 [10]: 13 µg/mL; neutralization IC50 [11]: 7 µg/mL; neutralization IC50 [12]: 2.2 µg/mL; neutralization IC50 [13]: 1.4 µg/mL
NIH45-46 heavy chain paired with the VRC01 light chain (IgG) (antibody, V domains shown) VH: QVRLSQSGGQMKKPGESMRLSCRASGYEFLNCPINWIRLAPGRRPEWMGWLKPRGGAVNYARKFQGRVTMTRDVYSDTAFLELRSLTSDDTAVYFCTRGKYCTARDYYNWDFEHWGRGAPVTVSS VL: EIVLTQSPGTLSLSPGETAIISCRTSQYGSLAWYQQRPGQAPRLVIYSGSTRAAGIPDRFSGSRWGPDYNLTISNLESGDFGVYYCQQYEFFGQGTKVQVDI | – | – | – | – | – | – | neutralization IC50 [14]: 2.1 µg/mL; neutralization IC50 [15]: 0.3 µg/mL; neutralization IC50 [16]: 1 µg/mL; neutralization IC50 [17]: 0.9 µg/mL; neutralization IC50 [18]: 0.6 µg/mL; neutralization IC50 [19]: 0.6 µg/mL; neutralization IC50 [20]: 0.2 µg/mL

Source: patent US20130209454A1 (CALIFORNIA INSTITUTE OF TECHNOLOGY, published 2013)
